Source: US20250057927A1, “ALPHA-1 A[…] FROM YEAST FOR USE IN THE TREATMENT OF VIRAL INFECTIONS” (priority 2021, published 2025)
Entries after “also recorded” stand apart in the source; their conditions may differ. Structures can show the parent of a compound that is named as a salt.

Tests used:
[1] = tested on: SARS-CoV-2; conditions: pretreatment, Vero-E6 cells; cited from earlier work
[2] = tested on: PEDV; conditions: pretreatment, Vero-E6 cells; cited from earlier work
[3] = tested on: Main Protease of coronaviruses; conditions: enzymatical assays; cited from earlier work
[4] = tested on: lentiviral SARS-CoV-2 pseudoparticles; type: cell-based
[5] = tested on: Covid-19; parameters: species or system patients; conditions: in vivo
[6] = tested on: protease-mediated entry of SARS-CoV-2; conditions: in vitro; cited from earlier work
[7] = molecular target: TMPRSS2 of Caco2 cells (UniProt O15393); assay: cell-based or functional assay
Chain of TMPRSS2 of Caco2 cells (UniProt O15393) (O15393 whole entry): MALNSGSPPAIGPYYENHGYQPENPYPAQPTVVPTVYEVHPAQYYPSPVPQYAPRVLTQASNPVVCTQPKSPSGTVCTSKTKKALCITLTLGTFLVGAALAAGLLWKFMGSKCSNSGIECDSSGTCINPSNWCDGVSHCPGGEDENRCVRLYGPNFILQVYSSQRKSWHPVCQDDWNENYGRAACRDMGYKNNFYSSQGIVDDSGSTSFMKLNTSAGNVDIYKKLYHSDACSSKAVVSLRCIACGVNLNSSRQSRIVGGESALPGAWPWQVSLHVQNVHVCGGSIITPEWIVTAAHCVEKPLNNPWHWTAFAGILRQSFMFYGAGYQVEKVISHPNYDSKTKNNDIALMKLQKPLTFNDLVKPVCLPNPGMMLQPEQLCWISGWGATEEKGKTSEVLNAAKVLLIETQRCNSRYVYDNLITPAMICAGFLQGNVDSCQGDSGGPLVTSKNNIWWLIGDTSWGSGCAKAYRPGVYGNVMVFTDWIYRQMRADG

[8] = molecular target: TMPRSS2 of Caco2 cells (UniProt O15393 1-492); assay: cell-based or functional assay
Chain of TMPRSS2 of Caco2 cells (UniProt O15393 1-492) (O15393 whole entry): as above

[9] = molecular target: T1, recombinant human TMPRSS2 (Homo sapiens, UniProt O15393); assay: TMPRSS2 activity assay (fluorogenic reporter peptide substrate); type: biochemical; conditions: dose-dependent; read-out: IC50 of TMPRSS2 proteolytic activity
T1 construct: purchased LSBio LS-G57269
T1 sequence (O15393 whole entry): as above
Method: The respective protease (TMPRSS2 or neutrophil elastase) is mixed with a serial dilution of rhAAT, camostat mesylate or Prolastin resulting in the formation of a complex between the test compound and the protease. Subsequently, a fluorogenic reporter peptide substrate is added. Upon cleavage of the reporter peptide substrate by the protease, a fluorescent dye is set free.
For assessing the activity of recombinant human TMPRSS2, 25 μl of serially diluted Prolastin, camostat mesylate or rhAAT is incubated with 25 μl of 2 μg/ml recombinant TMPRSS2 enzyme (LSBio #LS-G57269) in assay buffer (50 mM Tris-HCL, […] NaCl pH 8.0) for 15 min at 37° C. Next, 50 μl of 20 μM BOC-Gln-Ala-Arg-AMC protease substrate (Bachem #4017019) is added and incubated for 2 h at 37° C. Fluorescence intensity is measured after 2 h at an excitation wavelength of 380 nm and emission wavelength of 460 nm in a Synergy™ H1 microplate reader (BioTek) with Gen5 3.04 software. The assay is performed in a 96 well plate with flat bottom.

[10] = tested on: SARS-CoV-2; type: cell-based
[11] = tested on: Caco-2 cells; conditions: in the tested concentrations

COc1cc(O)c(CC=C(C)C)c(O)c1C(=O)/C=C/c1ccc(O)cc1 [Xanthohumol]
SARS-CoV-2 replication [1]: restricted | PEDV replication [2]: restricted | inhibition of protease activities [3]: inhibited protease activities

CN(C)C(=O)COC(=O)Cc1ccc(OC(=O)c2ccc(NC(=N)N)cc2)cc1 [camostat mesylate, reference compound]
inhibition of the entry of SARS-CoV-2 pseudoparticles [4]: inhibits the entry of SARS-CoV-2

AAT
Covid-19 PCR test [5]: negative | symptoms [5]: significantly improved; also recorded: no symptoms | restriction of protease-mediated entry of SARS-CoV-2 [6]: potently restricts

Prolastin
Covid-19 rapid tests [5]: negative | symptoms [5]: no symptoms | inhibition of the entry of SARS-CoV-2 pseudoparticles [4]: inhibits the entry of SARS-CoV-2

Prolastin: human serum derived AAT (from UniProt P01009 25-418)
IC50 of inhibiting pseudoparticle entry into Caco2 cells (Prolastin) [7]: 3160 µg/mL | estimated IC90 of pseudoparticle entry into Caco2 cells, derived from FIG. 4 [7]: 20000 µg/mL

B1: rec α1AT from supernatant of Pichia pastoris X33, anion exchange fractions 52 and 53 (other)
chain: EDPQGDAAQKTDTSHHDQDHPTFNKITPNLAEFAFSLYRQLAHQSNSTNIFFSPVSIATAFAMLSLGTKADTHDEILEGLNFNLTEIPEAQIHEGFQELLRTLNQPDSQLQLTTGNGLFLSEGLKLVDKFLEDVKKLYHSEAFTVNFGDTEEAKKQINDYVEKGTQGKIVDLVKELDRDTVFALVNYIFFKGKWERPFEVKDATEEEDFHVDQVTTVKVPMMKRLGMFNIQHCKKLSSWVLLMKYLGNATAIFFLPDEGKLQHLENELTHDIITKFLENEDRRSASLHLPKLSITGTYDLKSVLGQLGITKVFSNGADLSGVTEEAPLKLSKAVHKAVLTIDEKGTEAAGAMFLEAIPMSIPPEVKFNKPFVFLMIEQNTKSPLFMGKVVNPTQK
IC50 of inhibiting pseudoparticle entry into Caco2 cells (rec α1AT Fraction 52) [8]: 3060 µg/mL | IC50 of inhibiting pseudoparticle entry into Caco2 cells (rec α1AT Fraction 53) [8]: 3960 µg/mL

B2: rhAAT (protein)
chain: B1 chain
IC50 [9]: ~350 nM | inhibition of the entry of SARS-CoV-2 pseudoparticles [4]: inhibits the entry of SARS-CoV-2 similar to Prolastin and camostat mesylate | pseudoparticle entry [4]: almost no pseudoparticle entry | SARS-CoV-2 spike expression [10]: less detectable than Prolastin treated HAECs | inhibition of SARS-CoV-2 replication [10]: more effectively than Prolastin | viral titer [10]: reduce viral titer | toxicity for Caco-2 cells [11]: nontoxic
